# Source: US7531643
# Assays:
# [1] = target: human Integrin Associated Protein (IAP) (human) (UniProt Q08722); assay: cell ELISA on PLP-fixed CF-1 cells expressing human IAP, antibody at 3 µg/ml
# [2] = target: human Integrin Associated Protein (IAP) (human) (UniProt Q08722); assay: cell ELISA, CF1-hIAP-55-8 minus CF1-pCOS1, antibody at 3 µg/ml
# [3] = target: human Integrin Associated Protein (IAP) (human) (UniProt Q08722); assay: cell-based or functional assay
# [4] = target: human Integrin Associated Protein (IAP) (human) (UniProt Q08722); assay: cell ELISA, CF1-hIAP-55-8 minus CF1-pCOS1, hybridoma culture supernatant
# [5] = target: human Integrin Associated Protein (IAP) (human) (UniProt Q08722); assay: cell ELISA on PLP-fixed CF-1 cells expressing human IAP, hybridoma culture supernatant
# UniProt Q08722, sequence (Q08722 19-323): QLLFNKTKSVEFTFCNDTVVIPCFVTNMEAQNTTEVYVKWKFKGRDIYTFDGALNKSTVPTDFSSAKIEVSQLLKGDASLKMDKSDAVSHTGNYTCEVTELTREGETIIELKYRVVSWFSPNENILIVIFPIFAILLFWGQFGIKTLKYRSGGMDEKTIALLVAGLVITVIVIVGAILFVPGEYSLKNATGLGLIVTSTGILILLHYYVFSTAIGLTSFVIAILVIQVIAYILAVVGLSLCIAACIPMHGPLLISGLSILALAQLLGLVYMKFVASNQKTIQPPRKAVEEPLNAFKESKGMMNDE
"absorbance in ELISA (raw data, CF1-hIAP-55-8) [1] [absorbance]","Specific binding (absorbance, CF1-pCOS1 subtracted) [2] [absorbance]","percentage (%) of apoptosis of Jurkat cells, PI staining, flow cytometry (8G2 control supernatant 7.43%) [3] [%]","Specific binding (absorbance, CF1-pCOS1 subtracted) [4] [absorbance]","absorbance in ELISA (raw data, CF1-hIAP-55-8) [5] [absorbance]",Molecule
0.456,0.296,,,,human IAP-recognizing anti-CD47 antibody (PharMingen)
,,9.84,0.379,0.568,"monoclonal antibody of hybridoma 7D2-E3 (antibody, from another filing, IgG2a) scFv: QVQLQQSGPELVKPGASVKMSCKASGYTFANHVIHWVKQKPGQGLEWIGYIYPYNDGTKYNEKFKDKATLTSDKSSTTAYMDLSSLASEDSAVYYCARGGYYTYDDWGQGTTLTVSSGGGGSGGGGSGGGGSDVVMTQSPLSLPVSLGDQASISCRSSQSLVHSNGKTYLHWYLQKPGQSPKLLIYKVSNRFSGVPDRFSGSGSVTDFTLMISRVEAEDLGVYFCSQSTHVPYTFGGGTKLEIKDYKDDDDK"
